Test results: IntAct's records for PubMed 31402609

B1: Golgin subfamily A member 7B (Homo sapiens), Q2TAP0 (parent)
chain: MATEVHNLQELRRSASLATKVFIQRDYSDGTICQFQTKFPPELDSRIERQLFEETVKTLNGFYAEAEKIGGSSYLEGCLACATAYFIFLCMETHYEKVLKKISRYIQEQNEKIFAPRGLLLTDPVERGMRVIEISIYEDRCSSGSSSSGSSSGSGSSSGGGGGAGAR
B2: Palmitoyltransferase ZDHHC5 (Homo sapiens), Q9C0B5 (parent)
chain: MPAESGKRFKPSKYVPVSAAAIFLVGATTLFFAFTCPGLSLYVSPAVPIYNAIMFLFVLANFSMATFMDPGIFPRAEEDEDKEDDFRAPLYKTVEIKGIQVRMKWCATCRFYRPPRCSHCSVCDNCVEEFDHHCPWVNNCIGRRNYRYFFLFLLSLTAHIMGVFGFGLLYVLYHIEELSGVRTAVTMAVMCVAGLFFIPVAGLTGFHVVLVARGRTTNEQVTGKFRGGVNPFTNGCCNNVSRVLCSSPAPRYLGRPKKEKTIVIRPPFLRPEVSDGQITVKIMDNGIQGELRRTKSKGSLEITESQSADAEPPPPPKPDLSRYTGLRTHLGLATNEDSSLLAKDSPPTPTMYKYRPGYSSSSTSAAMPHSSSAKLSRGDSLKEPTSIAESSRHPSYRSEPSLEPESFRSPTFGKSFHFDPLSSGSRSSSLKSAQGTGFELGQLQSIRSEGTTSTSYKSLANQTRNGSLSYDSLLTPSDSPDFESVQAGPEPDPPLGYTSPFLSARLAQQREAERHPRLVPTGPTHREPSPVRYDNLSRHIVASLQEREKLLRQSPPLPGREEEPGLGDSGIQSTPGSGHAPRTSSSSDDSKRSPLGKTPLGRPAVPRFGKPDGLRGRGVGSPEPGPTAPYLGRSMSYSSQKAQPGVSETEEVALQPLLTPKDEVQLKTTYSKSNGQPKSLGSASPGPGQPPLSSPTRGGVKKVSGVGGTTYEISV
partner: B1 chain

Key:
[1] = variants of: B1; settings: with zdhc5_human ZDHHC5, Q9C0B5
[2] = variants of: B1; settings: with zdhc5_human ZDHHC5, Q9C0B5; remark: listed apart in the source
[3] = variants of: B2; settings: with gog7b_human GOLGA7B, Q2TAP0
[4] = variants of: B2; settings: with gog7b_human GOLGA7B, Q2TAP0; remark: listed apart in the source

| effect of a mutation on the interaction [1] | effect of a mutation on the interaction [2] | effect of a mutation on the interaction [3] | effect of a mutation on the interaction [4] | Variant |
| --- | --- | --- | --- | --- |
| with no effect | disrupting interaction strength |  |  | MATEVHNLQELRRSASLATKVFIQRDYSDGTIAQFQTKFPPELDSRIERQLFEETVKTLNGFYAEAEKIGGSSYLEGALAAATAYFIFLAMETHYEKVLKKISRYIQEQNEKIFAPRGLLLTDPVERGMRVIEISIYEDRASSGSSSSGSSSGSGSSSGGGGGAGAR [C33A;C78A;C81A;C90A;C141A] |
|  |  | disrupting interaction strength |  | C236A;C237A;C245A |
|  |  | with no effect | decreasing interaction strength | C134S |
